Laboratory results taken from PMC11393077.

Target: CTD peptide containing two heptad repeats with one Ser5 phosphorylation site
Assay: fluorescence polarisation

Substance: Human prolyl isomerase 1 (PIN1) (from UniProt Q13526 1-163) (enzyme)
- Kd: 21 µM
